From patent US20250066451A1 (SWEDISH ORPHAN BIOVITRUM AB PUBL, published 2025) come the findings set out here.

Usually EC50 stands for the concentration giving half of the maximal effect. Higher therefore signals a need for much substance.

Assay [1] addresses T1, Human IL-1R-I-Fc (Creative BioMart cat. no. IL1RI-771H) (human, UniProt P14778 18-332, limits assumed).
T1 construct: Bought protein; also called hIL-1R-I-Fc; hIL-1RI-Fc; not shown: Fc part of the bought fusion
T1 sequence (looked up): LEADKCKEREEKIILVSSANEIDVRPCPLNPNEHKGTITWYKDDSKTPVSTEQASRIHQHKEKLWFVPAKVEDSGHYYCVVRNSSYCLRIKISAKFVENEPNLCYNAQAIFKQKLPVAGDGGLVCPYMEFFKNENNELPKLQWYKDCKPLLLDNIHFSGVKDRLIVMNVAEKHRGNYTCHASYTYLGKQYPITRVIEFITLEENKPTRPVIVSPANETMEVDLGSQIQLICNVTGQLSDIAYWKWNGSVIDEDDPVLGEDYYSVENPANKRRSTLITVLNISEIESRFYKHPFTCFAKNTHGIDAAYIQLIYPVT
Kind of assay: ELISA titration; Z-ABD periplasmic extract, hIL-1R-I-Fc 100-0.01 nM.

The target of assay [2] is T1, Human IL-1R-I-Fc (Creative BioMart cat. …). The assay is described as follows: ELISA screening, periplasmic extract. Background: An ELISA detects its analyte on a solid surface through an enzyme-linked reagent.
Description: ELISA screening of Z variants: The clones obtained after four cycles of selection were produced individually in 96-well plates and were screened for hIL-1R-I-Fc binding activity in ELISA using 1 nM target protein. In parallel, an ELISA to exclude Fc binding was run.

B1: Z12917 as Z-ABD fusion (periplasmic extract) (designed binder)
chain: AQHDEALEVDAKYAKEARQAYAEIYLLPNLTRRQYTAFIRKLLDDPSQSSELLSEAKKLNDSQAPKVDYVLAEAKVLANRELDKYGVSDYYKNLINNAKTVEGVKALIDEILAALPYVPG
In assay [1], B1 showed an EC50 of 0.33 nM.

B2: ABD001 (wild type albumin binding domain), periplasmic extract (other)
chain: LAEAKVLANRELDKYGVSDYYKNLINNAKTVEGVKALIDEILAALP
notes: Negative control; also called ABD negative control
In the case of B2, the binding result in assay [2] is given as “no binding (tested: 1 nM hIL-1R-I-Fc)”.
